B1: 8-K6 (antibody, V domains shown)
VH: QVHLQQPGAELVKPGASVKMSCKASGYTFTSYWITWVKQRPGQGLEWIGDIFPNSGRTNYDEKFKSKATLTVDTSSSTAYMQLSSLTSEDSAVYFCAREGNFGSLDYWGQGTTLTVSS
VL: QIVLTQSPAIMSASPGEKVTMTCSANSNLNYMNWYHQKSGTSPKRWIYDTSKLASGVPARFSASGSGTSYSLTISSMEAEDAATYYCQQWSRNPLTFGAGTRLELK
B2: 6-D3 (antibody, V domains shown)
VH: QVQLQQPGAELVKPGASVKMSCKASGYTFTRHWITWVKQRPGQGLEWIGDIYPGSGRTNYNEKFKSTATLTVDTSSSTAYMQLSSLTSEDSAVYYCARDGYLYINYFDYWGQGTTLTVSS
VL: ENVLTQSPAIMSASPGEKVTMTCSASSSVSFMHWFQQKSSTSPKLWIYDTSKLASGVPGRFSGSGSGSSYSLTISSMAAEDVATYYCFQGSGYPYTFGGGTKLEIK
B3: 9-D4 (antibody, V domains shown)
VH: QVQLQQSGTELARPGASVKLSCKASGFTFTDYGINWVKQRTGQGLEWIGEIYPSSGNSYYNEKFKAKATLTADKSSSTAYMELRSLTSEDSAVYFCARSTYYGSPIDYWGQGTTLTVSS
VL: DIVMTQSHKFMSTPVGDRVSITCKASQDVDTTVAWYQQKPGQSPKLLIYWASTRQIGVPDRFTGSGSGTDFTLTISNVQSEDLADYFCQQYSTYPLTFGGGTKLEIK
B4: 4-C5 (antibody, V domains shown)
VH: QVQLQQSGAELMKPGASVKISCKATGYTFSNYWIEWVKQRPGHGLEWIGEILPGSGSTNYNENFKGKATFTADTSSNTAYMQLSSLTSEDSAVYYCARRGAYGNFHYWGQGTTLTVSS
VL: EIVLTQSPALMAASPGEKVTITCSVSSSISSSNLHWYQQKSETSPKPWIYGTSNLASGVPVRFSGSGSGTSYSLTISSMEAEDAATYYCQQWRSYPYTFGGGTKLEIK
B5: 3-A4 (antibody, V domains shown)
VH: EVQLQQSGAELVRPGASVKLSCTASGFNIKDDYMYWVKQRPEQGLEWIGWIDPENGDTEYASKFQDKATVTADTSSNTAYLQLSSLTSEDTAVYYCTLWLRRGLDYWGQGTSVTVSS
VL: DIVMTQAAPSVPVTPGESVSISCRSSKSLLHSNGYTYLFWFLQRPGQSPQLLIYRMSNLASGVPDRFSGSGSGTAFTLRISRVEAEDVGVYYCMQHLEYPFTFGGGTKLEIK
B6: 5-H12 (antibody, V domains shown)
VH: QIQLQQSGPELVRPGASVKISCKASGYSFTDYCINWVNQRPGQGLEWIGWIYPGSGNTRYSERFKGKATLTVDTSSNTAYMQLSSLTSEDSAVYFCAREDYYPYHGMDYWGQGTSVTVSS
VL: DIVLTQSPTSLAVSLGQRATISCRASESVDGYDNSFMHWYQQKPGQPPKLLIFRASNLESGIPARFSGSGSRTDFTLTINPVEAADVATYYCQQSSEDPWTFGGGTKLEIK
B7: 3-E5 (antibody, V domains shown)
VH: EIQMKQSGAELVKPGASVKISCKASGYSFTGYNMNWVKQSHGKSLEWIGNINPYYGSTGYNQKFKGKATLTVDKSSSTAYMQLNSLTSEDSAVYYCARGDYGYDEGTWFAYWGQGTLVTVSA
VL: DIVMSQSPSSLAVSAGEKVTMSCKSSQSLLNSRTRKNYLAWYQQKPEQSPKLLIYWASTRESGVPDRFTGSGSGTDFTLTISSVQAEDLAVYYCKQSYNLPFTFGSGTKLEIK
B8: 8-K06 (antibody, V domains shown)
VH: B1 VH
VL: B1 VL
B9: 10-H02 (antibody, V domains shown)
VH: EVQLVESGGDLVKPGGSLKLSCAASGFTFSDYGMHWVRQGPEKGLEWVAYINSGSSTIYYADTVKGRFTISRDNAKNTLFLQMTSLRSEDTAMYYCARPGDYDNYAMDYWGQGTSVTVSS
VL: DIVMTQSHKFLSTSVGDRVSITCKASQDVSVAVAWYQQKPGQSPKLLIYWAYTRHTGVPDRFTGSGSGTEYTLTISSVQAEDLALYYCQQHYNTPPWTFGGGTKLEIK
B10: 8-D15: anti-TfR1 antibody, VH SEQ ID NO: 132, VL SEQ ID NO: 133 (antibody, V domains shown)
VH: QVQLKESGPGLVAPSQSLSITCTVSGFSLTSYAITWVRQSPGKGLEWLGLIWTGGGTNYNSALKSRLSISKDNSKSQVFLKMNSLQTDDTARYYCARIYDGYYRYFDVWGTGTTVTVSS
VL: RIVLTQTPKFLLVSAGDRVTMTCKASQSVSNDVAWYQQKPGQSPKLLIYYASNRYTGVPDRFTGSGYGTDFTFTISTVQAEDLAVYFCQQDYSSPWTFGGGTKLEIK
B11: 6-D03 (antibody, V domains shown)
VH: B2 VH
VL: B2 VL
B12: 9-C04 (antibody, V domains shown)
VH: EVQLMESGGDLVKPGGSLKLSCAASGFTFSSYGLSWVRQTPDKRLEWVATITSGGSYTYYPDSVKGRFTISRDNARNTLYLQMFSLKSEDTAMYYCALWSLDYWGQGTTLTVSS
VL: QIVLTQSPAIMSASPGEKVTMTCSANSSLSYMHWYQQKPGTSPKRWIYDTSELASGVPARFSGSGSGTSYSLTISSMEAEDAATYYCHQRRSYPWTFGGGTKLEIK
B13: 9-D04 (antibody, V domains shown)
VH: B3 VH
VL: B3 VL
B14: 4-C05 (antibody, V domains shown)
VH: B4 VH
VL: B4 VL
B15: 3-A04 (antibody, V domains shown)
VH: B5 VH
VL: B5 VL
B16: 3-E05 (antibody, V domains shown)
VH: B7 VH
VL: B7 VL

These molecules were tested on DMPK (assay: DMPK knockdown by anti-TfR1 antibody-oligonucleotide conjugates in DM1 patient myotubes). Conditions: DM1 patient myotubes, conjugate with control DMPK-ASO, 72 hours; concentration not stated (0.5, 5, 50 nM tested).
Type: cell-based, human
Procedure: (§1) The purified complexes were then tested for cellular internalization and inhibition of the target gene, DMPK. Non-human primate (NHP) or DM1 (donated by DM1 patients) cells were grown in 96-well plates and differentiated into myotubes for 7 days. Cells were then treated with escalating concentrations (0.5 nM, 5 nM, 50 nM) of each complex for 72 hours. Cells were harvested, RNA was isolated, and reverse transcription was performed to generate cDNA. qPCR was performed using TaqMan kits specific for Ppib (control) and DMPK on the QuantStudio 7. The relative amounts of remaining DMPK transcript in treated vs non-treated cells was were calculated and the results are shown in Table 14 and FIG. 20.
as §1, with “of” for “of the target gene,”, “in” for “in Table 14 and”, “23.” for “20.”
With B1 the “% knockdown of DMPK in cells from human DM1 patients using Antibody-DMPK ASO conjugate” value (from here on “% knockdown of DMPK in cells”) was 34%.
For B2, the “% knockdown of DMPK in cells” value was −5%.
With B3 the “% knockdown of DMPK in cells” value was 62%.
With B4 the “% knockdown of DMPK in cells” value was 35%.
With B5 the “% knockdown of DMPK in cells” value was 70%.
For B6, the “% knockdown of DMPK in cells” value was 57%.
With B7 the “% knockdown of DMPK in cells” value was 71%.

Same assay, conditions: conjugates with control DMPK-ASO, in either cyno cells or human DM1 patient cells
With B1 the “activity in delivering a payload (DMPK ASO) and achieving DMPK knockdown compared to the control antibody 15G11” value was “superior activity”.
B3 was tested, and the “activity in delivering a payload (DMPK ASO) and achieving DMPK knockdown compared to the control antibody 15G11” value was “superior activity”.
B5 was tested, and the “activity in delivering a payload (DMPK ASO) and achieving DMPK knockdown compared to the control antibody 15G11” value was “superior activity”.
For B6, the “activity in delivering a payload (DMPK ASO) and achieving DMPK knockdown compared to the control antibody 15G11” value was “superior activity”.
In the case of B7, the “activity in delivering a payload (DMPK ASO) and achieving DMPK knockdown compared to the control antibody 15G11” value is reported as “superior activity”.

Each molecule was assayed on DMPK (assay: DMPK knockdown by anti-TfR1 antibody-oligonucleotide conjugates in NHP myotubes). Conditions: conjugate with control DMPK-ASO, 72 hours, concentration not stated (0.5, 5, 50 nM tested).
Type: cell-based, non-human primate
Procedure: as §1
as §1, with “of” for “of the target gene,”, “in” for “in Table 14 and”, “23.” for “20.”
For B1, the “% knockdown of DMPK in NHP cells using Antibody-DMPK ASO conjugate” value (“% knockdown of DMPK in NHP cells” for short) was 73%.
For B2, the “% knockdown of DMPK in NHP cells” value was −8%.
With B3 the “% knockdown of DMPK in NHP cells” value was 42%.
For B4, the “% knockdown of DMPK in NHP cells” value was −20%.
B5 was tested, and the “% knockdown of DMPK in NHP cells” value was 77%.
With B6 the “% knockdown of DMPK in NHP cells” value was 88%.
With B7 the “% knockdown of DMPK in NHP cells” value was 59%.

These molecules were tested against hTfR1 (Homo sapiens, UniProt P02786) (assay: Binding kinetics of anti-TfR1 antibodies on Carterra LSA, hTfR1). Conditions: Carterra LSA at 25 C.
hTfR1, sequence (P02786 whole entry): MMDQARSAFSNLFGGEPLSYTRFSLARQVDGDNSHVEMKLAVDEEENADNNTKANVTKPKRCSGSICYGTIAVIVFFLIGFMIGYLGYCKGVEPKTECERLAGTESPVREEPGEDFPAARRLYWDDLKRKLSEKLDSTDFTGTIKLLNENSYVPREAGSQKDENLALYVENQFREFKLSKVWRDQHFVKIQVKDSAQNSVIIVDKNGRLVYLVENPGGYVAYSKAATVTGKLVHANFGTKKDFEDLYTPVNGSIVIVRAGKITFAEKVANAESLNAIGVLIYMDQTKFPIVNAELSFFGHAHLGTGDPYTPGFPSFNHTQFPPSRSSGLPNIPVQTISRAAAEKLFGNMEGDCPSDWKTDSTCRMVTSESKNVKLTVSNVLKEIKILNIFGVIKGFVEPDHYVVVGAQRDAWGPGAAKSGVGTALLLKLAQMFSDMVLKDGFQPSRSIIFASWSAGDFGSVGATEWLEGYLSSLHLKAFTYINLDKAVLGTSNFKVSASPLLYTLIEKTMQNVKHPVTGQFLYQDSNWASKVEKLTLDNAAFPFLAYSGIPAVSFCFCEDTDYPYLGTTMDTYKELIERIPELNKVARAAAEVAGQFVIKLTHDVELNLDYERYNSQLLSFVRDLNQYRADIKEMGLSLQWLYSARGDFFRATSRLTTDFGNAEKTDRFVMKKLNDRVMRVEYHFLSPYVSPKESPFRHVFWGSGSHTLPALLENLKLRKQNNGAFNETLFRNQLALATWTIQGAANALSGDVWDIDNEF
Procedure: Selected anti-TfR1 antibodies were tested for their binding affinity to human TfR1 for measurement of Ka (association rate constant), Kd (dissociation rate constant), and KD (affinity). […] The binding experiment was performed on Carterra LSA at 25 C. An anti-mouse IgG and anti-human IgG antibody “lawn” was prepared on a HC30M chip by amine coupling. 59 IgGs (58 mouse mAbs and 1 human mAb) were captured on the chip. Dilution series of hTfR1, cyTfR1, and hTfR2 were injected to the chip for binding (starting from 1000 nM, 1:3 dilution, 8 concentrations).
Binding data were referenced by subtracting the responses from a buffer analyte injection and globally fitting to a 1:1 Langmuir binding model for estimate of Ka (association rate constant), Kd (dissociation rate constant), and KD (affinity) using the Carterra™ Kinetics software. 5-6 concentrations were used for curve fitting.
For B8, the “dissociation rate constant (koff)” value was 10 µM.
For B9, the “dissociation rate constant (koff)” value was 342 µM.
B10 was tested, and the “dissociation rate constant (koff)” value was 257 µM.
In the case of B11, the “dissociation rate constant (koff)” value is reported as 107 µM.
B12 was tested, and the “dissociation rate constant (koff)” value was 575 µM.
With B13 the “dissociation rate constant (koff)” value was 246 µM.
B14 was tested, and the “dissociation rate constant (koff)” value was 48.5 µM.
In the case of B15, the “dissociation rate constant (koff)” value is reported as 195 µM.
With B16 the “dissociation rate constant (koff)” value was 10 µM.

From patent US20230144436A1, “MUSCLE TARGETING COMPLEXES AND USES THEREOF FOR TREATING MYOTONIC DYSTROPHY” (Dyne Therapeutics, Inc., priority 2020, published 2023)
